# Biological target: Her2 extracellular domain antigen (ACRO Biosystems) (UniProt P04626)
# Test: SPR (Carterra LSA), Fab captured from lysate on Fab Kappa capture reagent, Her2 ECD in solution
substance,measurement,value
five standards of trastuzumab Fab,Kd,100 nM
